Assay results reported in patent US5180667A, “Genes encoding eglin C mutants” (Ciba-Geigy Corporation, priority 1988, dated 1993).

Target: trypsin
Assay: Inhibition constant Ki, steady-state release of p-nitroaniline, trypsin
Format: biochemical
Conditions: only inhibitor concentration varied
Procedure: The determination of the inhibition constants Ki is carried out according to N. Braun et al. [Biol. Chem. Hoppe-Seyler 368, 299-308 (1987)] by measuring the steady-state reaction rate of the release of p-nitroaniline from proteinase-inhibitor substrate mixtures. Only the inhibitor concentration is varied. Since the curve OD405 vs. time was linear, the release of p-nitroaniline is entered at 10 to 20 minutes. Ki can be determined from the various slopes. The proteinases used are human leukocyte elastase (HLE), chymotrypsin and trypsin.

Inhibition constants, trypsin Ki (M): no inhibition
B1: Eglin C (protein, UniProt P01051 1-70, looked up)
Eglin C: TEFGSELKSFPEVVGKTVDQAREYFTLHYPQYDVYFLPEGSPVTLDLRYNRVRVFYNPGTNVVNHVPHVG
